In patent publication US20190185581A1 (University of California, published 2019):
Numbering of substitutions follows the chain as printed. Names and notes keep the numbering of the source.

Assays:
[1] = molecular target: T1, catalytic domain of MMP-14 (cdMMP-14) (human, UniProt P50281 114-287, limits assumed, biotinylated (Sulfo-NHS-LC-Biotin) where immobilised via streptavidin); test: ELISA, Fab titrated on immobilised MMP-14 catalytic domain, anti-Fab-HRP
T1 construct: also called matrix metalloproteinase-14 catalytic domain; wild-type MMP-14
Experimental: (§1) Bound Fabs were detected using the anti-Fab-HRP conjugate. The half-maximal effective concentration (EC₅₀) was calculated from a four-parametric logistic curve-fitting analysis.

[2] = molecular target: T1, catalytic domain of MMP-14 (cdMMP-14); test: cell-based or functional assay
[3] = molecular target: T2, catalytic domain of MMP-9 (cdMMP-9) (human, UniProt P14780 107-443, limits assumed); test: ELISA, purified Fab at 50, 100, 250 and 500 nM on immobilised MMP catalytic domain, anti-Fab-HRP, OD450
T2 sequence: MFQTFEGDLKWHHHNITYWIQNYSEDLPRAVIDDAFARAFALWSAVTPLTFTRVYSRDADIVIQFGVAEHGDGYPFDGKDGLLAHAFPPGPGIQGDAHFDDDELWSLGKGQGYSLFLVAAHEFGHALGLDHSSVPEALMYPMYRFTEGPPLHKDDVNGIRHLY

[4] = molecular target: catalytic domain of MMP-2 (human, UniProt P08253 115-449, limits assumed, biotinylated (Sulfo-NHS-LC-Biotin)); test: as above
Chain of catalytic domain of MMP-2 (P08253 other isoform, or with tags, fused parts or gaps limits assumed): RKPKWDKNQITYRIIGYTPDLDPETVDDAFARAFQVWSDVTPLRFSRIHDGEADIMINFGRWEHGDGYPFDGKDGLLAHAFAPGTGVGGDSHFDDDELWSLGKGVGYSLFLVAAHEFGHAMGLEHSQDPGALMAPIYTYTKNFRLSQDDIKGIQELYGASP

[5] = molecular target: T1, catalytic domain of MMP-14 (cdMMP-14); test: ELISA, Fab titrated on immobilised biotin-cdMMP-14, anti-Fab-HRP
[6] = molecular target: T1, catalytic domain of MMP-14 (cdMMP-14); test: cell-based or functional assay; remark: listed apart in the source
[7] = molecular target: T1, catalytic domain of MMP-14 (cdMMP-14); test: cell-based or functional assay; remark: listed apart in the source
[8] = molecular target: T1, catalytic domain of MMP-14 (cdMMP-14); test: competitive ELISA: serially diluted n-TIMP-2 with Fab 3A2 fixed at 10 nM on biotinylated cdMMP-14 on streptavidin wells; bound Fab detected with anti-Fab-HRP; competitor: Fab 3A2
[9] = molecular target: T3, Fab 3A2; test: competitive ELISA: 10 nM Fab 3A2 pre-incubated with soluble MMP-14 (WT or mutant), then captured on immobilised wild-type MMP-14; anti-Fab-HRP
T3 construct: also called R3C9; not shown: His tag at the C-terminus of the heavy chain

[10] = molecular target: T3, Fab 3A2; test: competitive ELISA: 10 nM Fab 3A2 pre-incubated with soluble MMP-14 mutant, then captured on immobilised wild-type MMP-14; anti-Fab-HRP
Experimental: as §1

[11] = molecular target: T2, catalytic domain of MMP-9 (cdMMP-9); test: competitive ELISA: Fab R2C14 at its IC50 concentration pre-incubated with soluble cdMMP-9, then added to a plate coated with 100 nM cdMMP-14; anti-Fab-HRP
[12] = molecular target: T2, catalytic domain of MMP-9 (cdMMP-9); test: competitive ELISA: Fab R2C5 at its IC50 concentration pre-incubated with soluble cdMMP-9, then added to a plate coated with 100 nM cdMMP-14; anti-Fab-HRP

B1: Fab 2B5 (Fab, V domains shown)
VH: EVQLVESGGGLVQPGGSLRLSCAASGFNLSYSSMHWVRQAPGKGLEWVASIYPYSGYTYYADSVKGRFTISADTSKNTAYLQMNSLRAEDTAVYYCARIGVNAWAVKMSQRMLATRGSGWYVMDYWGQGTLVTVSS
VL: DIQMTQSPSSLSASVGDRVTITCRASQSVSSAVAWYQQKPGKAPKLLIYSASSLYSGVPSRFSGSRSGTDFTLTISSLQPEDFATYYCQQSSSYPYSPITFGQGTKVEIKR
notes: not shown: His tag at the C-terminus of the heavy chain
- EC50 [1]: 24 nM
- IC50 by FRET Assay [2]: 240 nM
- binding result [3]: no binding (tested: 500 nM)
- binding result [4]: no binding (tested: 500 nM)

B2: Fab 3G9 (Fab, V domains shown)
VH: EVQLVESGGGLVQPGGSLRLSCAASGFNIYYSSIHWVRQAPGKGLEWVASIYSYSGYTYYADSVKGRFTISADTSKNTAYLQMNSLRAEDTAVYYCARATNEKFRRKSLQVRLLMRSWLAYAMDYWGQGTLVTVSS
VL: B1 VL with S91A, S93Y, Y94A, P95A, Y96S, S97A, P98L
notes: as for B1
- EC50 [1]: 160 nM
- IC50 by FRET Assay [2]: 390 nM

B3: Fab 3F3 (Fab, V domains shown)
VH: EVQLVESGGGLVQPGGSLRLSCAASGFNIYSSSMHWVRQAPGKGLEWVAYIYPYSGYTYYADSVKGRFTISADTSKNTAYLQMNSLRAEDTAVYYCARLYNGWLMVEGIGSAREGPTWYAMDYWGQGTLVTVSS
VL: B1 VL with S91G, S92G, S93V, P95A, Y96A, S97H, I99F
notes: also called R2C13; not shown: His tag at the C-terminus of the heavy chain
- EC50 [1]: 34 nM
- EC50 [5]: 34 nM
- Inhibition potency (FRET IC50) [6]: 970 nM
- IC50 by FRET Assay [2]: 970 nM

B4: N-terminal inhibitory domain of tissue inhibitor of metalloproteinase-2 (n-TIMP-2) (other, UniProt P16035 27-153, looked up)
chain: CSCSPVHPQQAFCNADVVIRAKAVSEKEVDSGNDIYGNPIKRIQYEIKQIKMFKGPEKDIEFIYTAPSSAVCGVSLDVGGKKEYLIAGKAEGDGKMHITLCDFIVPWDTLSTTQKKSLNHRYQMGCE
notes: domain: N-terminal domain
- inhibitory IC50 (FRET peptide substrate) [7]: 5.1 nM
- IC50 (read off the curve) [8]: ~30 nM

B5: MMP-14 catalytic domain mutant F198A (enzyme)
chain: not shown
- IC50 (read off the curve) [9]: ~100 nM

B6: MMP-14 catalytic domain mutant F260A (enzyme)
chain: not shown
notes: also called F260A MMP-14 mutant
- binding result [10]: no binding (tested: about 2000 nM (log10(nM) 3.3))

B7: MMP-14 catalytic domain mutant Y203A (enzyme)
chain: not shown
- IC50 (read off the curve) [9]: ~100 nM

B8: MMP-14 catalytic domain mutant T190A (enzyme)
chain: not shown
- IC50 (read off the curve) [9]: ~100 nM

B9: MMP-14 catalytic domain mutant F204A (enzyme)
chain: not shown
- binding result [9]: binds

B10: MMP-14 catalytic domain mutant N231A (enzyme)
chain: not shown
- binding result [9]: binds

B11: Fab 3E9 (Fab, V domains shown)
VH: EVQLVESGGGLVQPGGSLRLSCAASGFNLYYSSMHWVRQAPGKGLEWVASIYPSYGSTYYADSVKGRFTISADTSKNTAYLQMNSLRAEDTAVYYCARNGRYPGFLKRAHKRLLNFKAYVMDYWGQGTLVTVSS
VL: DIQMTQSPSSLSASVGDRVTITCRASQSVSSAVAWYQQKPGKAPKLLIYSASSLYSGVPSRFSGSRSGTDFTLTISSLQPEDFATYYCQQGSWYLITFGQGTKVEIKR
notes: as for B1
- EC50 [1]: 51 nM
- IC50 by FRET Assay [2]: 6000 nM

B12: Fab R2C14 (Fab, V domains shown)
VH: EVQLVESGGGLVQPGGSLRLSCAASGFNIYSSSIHWVRQAPGKGLEWVASIYSYSGYTYYADSVKGRFTISADTSKNTAYLQMNSLRAEDTAVYYCARVSNRYNRSSASIAGLQLFRPYGMDYWGQGTLVTVSS
VL: B11 VL with G91S, W93Y, Y94S
- binding result [11]: no binding (tested: about 4000 nM (log10(nM) about 3.6))
- EC50 [5]: 1200 nM
- Inhibition potency (FRET IC50) [6]: 10 nM

B13: Fab 33D4 (Fab, V domains shown)
VH: EVQLVESGGGLVQPGGSLRLSCAASGFNIYYSSMHWVRQAPGKGLEWVASISPYSGSTYYADSVKGRFTISADTSKNTAYLQMNSLRAEDTAVYYCARSVHMKLSNKILSGWSWNNSFYAMDYWGQGTLVTVSS
VL: B11 VL with G91S, W93Y, Y94S
notes: also called R2C15; not shown: His tag at the C-terminus of the heavy chain
- EC50 [1]: 460 nM
- EC50 [5]: 460 nM
- Inhibition potency (FRET IC50) [6]: 3900 nM
- IC50 by FRET Assay [2]: 3900 nM

B14: Fab 32C2 (Fab, V domains shown)
VH: EVQLVESGGGLVQPGGSLRLSCAASGFNLYYYSMHWVRQAPGKGLEWVAYISPYSSSTYYADSVKGRFTISADTSKNTAYLQMNSLRAEDTAVYYCARSQHAKKSTIIRMLEHQSRSGMQYVMDYWGQGTLVTVSS
VL: B11 VL with G91S, W93Y, Y94S
notes: as for B1
- EC50 [1]: 150 nM
- IC50 by FRET Assay [2]: 8000 nM

B15: Fab 3E2 (Fab, V domains shown)
VH: EVQLVESGGGLVQPGGSLRLSCAASGFNIYYYSIHWVRQAPGKGLEWVASIYPYSSYTYYADSVKGRFTISADTSKNTAYLQMNSLRAEDTAVYYCARGIKGLVFTGSQMKMLRRGNYNWYVMDYWGQGTLVTVSS
VL: B11 VL with G91S, W93Y, Y94S
notes: as for B1
- EC50 [1]: 47 nM
- IC50 by FRET Assay [2]: 42 nM
- binding result [3]: no binding (tested: 500 nM)
- binding result [4]: no binding (tested: 500 nM)

B16: Fab 3D9 (Fab, V domains shown)
VH: EVQLVESGGGLVQPGGSLRLSCAASGFNIYSSSIHWVRQAPGKGLEWVASIYSSYGYTYYADSVKGRFTISADTSKNTAYLQMNSLRAEDTAVYYCARRLMAYHGSCSSRLCQTAISPQRYAMDYWGQGTLVTVSS
VL: B11 VL with G91S, W93Y, Y94S
notes: as for B1
- EC50 [1]: 6.4 nM
- IC50 of inhibition at neutral pH 7.5 [7]: 65 nM
- IC50 of inhibition at pH 6.5 [7]: 10.5 nM
- IC50 of inhibition at pH 8.5 [7]: 157 nM
- IC50 by FRET Assay [2]: 61 nM
- binding result [3]: no binding (tested: 500 nM)
- binding result [4]: no binding (tested: 500 nM)

B17: Fab 33C4 (Fab, V domains shown)
VH: EVQLVESGGGLVQPGGSLRLSCAASGFNLYSSSMHWVRQAPGKGLEWVASIYPYYGYTYYADSVKGRFTISADTSKNTAYLQMNSLRAEDTAVYYCARPTTSRVNKKLFRVSVLHPGSYGMDYWGQGTLVTVSS
VL: DIQMTQSPSSLSASVGDRVTITCRASQSVSSAVAWYQQKPGKAPKLLIYSASSLYSGVPSRFSGSRSGTDFTLTISSLQPEDFATYYCQQASYLITFGQGTKVEIKR
notes: also called R2C3; not shown: His tag at the C-terminus of the heavy chain
- EC50 [1]: 220 nM
- EC50 [5]: 220 nM
- Inhibition potency (FRET IC50) [6]: 4600 nM
- IC50 by FRET Assay [2]: 4600 nM

B18: Fab R2C5 (Fab, V domains shown)
VH: EVQLVESGGGLVQPGGSLRLSCAASGFNLSSYYMHWVRQAPGKGLEWVASIYPYSSYTSYADSVKGRFTISADTSKNTAYLQMNSLRAEDTAVYYCARIMKIKRNSLKFRGFVPLQMQYVMDYWGQGTLVTVSS
VL: B17 VL with A91S, S92Y, Y93G, I95F
- EC50 [5]: 375 nM
- Inhibition potency (FRET IC50) [6]: 50 nM
- binding result [12]: no binding (tested: about 4000 nM (log10(nM) about 3.6))
